Starred links: 1 amine or outer side, 2 acyl side, 3 side chain; linkers in the order of their positions; H or OH if unused. Non-standard residues stand in square brackets, D forms with d. *: point of attachment. Ttds = 1-amino-4,7,10-trioxa-13-tridecanamine succinimic acid spacer, O=C(CCC(=O)[*:2])NCCCOCCOCCOCCCN[*:1]; (PEG)2 40 kDa = branched PEG of 40 kDa linked via the Cys side-chain thiol (code C2 = Cys(PEG)2 40 kDa); Succinimide(1-Et,3-yl) = CCN1C(=O)CC(*)C1=O
T1: mouse NMUR1-CTG (mouse, UniProt O55040 1-428)
T1 sequence (looked up): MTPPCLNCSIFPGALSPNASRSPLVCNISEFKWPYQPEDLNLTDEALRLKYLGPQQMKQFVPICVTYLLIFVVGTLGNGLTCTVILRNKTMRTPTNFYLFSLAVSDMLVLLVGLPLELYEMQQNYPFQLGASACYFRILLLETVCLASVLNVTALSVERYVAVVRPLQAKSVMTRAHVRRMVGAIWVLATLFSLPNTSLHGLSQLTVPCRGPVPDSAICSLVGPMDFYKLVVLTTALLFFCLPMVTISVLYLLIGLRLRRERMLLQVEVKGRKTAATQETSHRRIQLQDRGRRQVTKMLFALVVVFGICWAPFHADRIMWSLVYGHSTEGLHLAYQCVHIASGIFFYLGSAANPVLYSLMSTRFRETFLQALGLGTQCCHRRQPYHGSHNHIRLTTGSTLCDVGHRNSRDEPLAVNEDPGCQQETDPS

T2: mouse NMUR1-ATG (mouse, UniProt O55040 1-428)
T2 sequence (looked up): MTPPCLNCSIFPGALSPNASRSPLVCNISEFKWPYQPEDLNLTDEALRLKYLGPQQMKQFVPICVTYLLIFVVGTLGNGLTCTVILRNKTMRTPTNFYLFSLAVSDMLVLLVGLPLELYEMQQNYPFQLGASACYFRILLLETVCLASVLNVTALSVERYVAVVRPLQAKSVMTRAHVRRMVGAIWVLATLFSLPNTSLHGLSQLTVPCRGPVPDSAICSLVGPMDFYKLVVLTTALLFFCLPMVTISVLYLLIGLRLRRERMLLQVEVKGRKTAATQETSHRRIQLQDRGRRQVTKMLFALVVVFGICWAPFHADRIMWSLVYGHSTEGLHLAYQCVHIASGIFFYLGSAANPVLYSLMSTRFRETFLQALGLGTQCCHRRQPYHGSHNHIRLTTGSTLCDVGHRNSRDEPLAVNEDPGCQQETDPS

T3: rat NMUR1-TTG (rat, UniProt Q9JJI5 1-425)
T3 sequence (looked up): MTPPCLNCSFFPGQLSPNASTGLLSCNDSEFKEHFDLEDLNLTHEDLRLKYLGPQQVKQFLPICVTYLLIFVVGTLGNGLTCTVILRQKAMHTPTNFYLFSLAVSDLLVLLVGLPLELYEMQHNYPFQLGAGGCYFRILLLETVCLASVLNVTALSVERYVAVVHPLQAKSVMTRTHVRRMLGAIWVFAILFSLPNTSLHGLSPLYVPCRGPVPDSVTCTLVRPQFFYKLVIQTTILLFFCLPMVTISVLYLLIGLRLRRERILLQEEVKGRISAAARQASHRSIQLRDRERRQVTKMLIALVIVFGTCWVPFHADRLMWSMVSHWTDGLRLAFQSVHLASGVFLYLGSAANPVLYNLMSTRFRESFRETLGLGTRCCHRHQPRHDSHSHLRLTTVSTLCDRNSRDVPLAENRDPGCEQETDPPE

T4: rat NMUR1-ATG (rat, UniProt Q9JJI5 1-425)
T4 sequence (looked up): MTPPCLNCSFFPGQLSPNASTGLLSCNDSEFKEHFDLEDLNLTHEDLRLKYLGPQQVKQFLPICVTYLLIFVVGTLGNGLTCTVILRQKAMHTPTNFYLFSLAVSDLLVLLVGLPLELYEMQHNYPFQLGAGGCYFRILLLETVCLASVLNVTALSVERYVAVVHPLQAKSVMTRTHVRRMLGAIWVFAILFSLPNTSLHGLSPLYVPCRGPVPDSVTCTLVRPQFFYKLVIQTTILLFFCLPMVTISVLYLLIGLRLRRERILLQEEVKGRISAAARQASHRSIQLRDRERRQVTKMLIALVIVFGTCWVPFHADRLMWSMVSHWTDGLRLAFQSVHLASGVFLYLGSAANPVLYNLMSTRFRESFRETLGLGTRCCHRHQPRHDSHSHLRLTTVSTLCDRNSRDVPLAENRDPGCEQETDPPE

T5: human NMUR1 (human, UniProt Q9HB89 1-426)
T5 sequence (looked up): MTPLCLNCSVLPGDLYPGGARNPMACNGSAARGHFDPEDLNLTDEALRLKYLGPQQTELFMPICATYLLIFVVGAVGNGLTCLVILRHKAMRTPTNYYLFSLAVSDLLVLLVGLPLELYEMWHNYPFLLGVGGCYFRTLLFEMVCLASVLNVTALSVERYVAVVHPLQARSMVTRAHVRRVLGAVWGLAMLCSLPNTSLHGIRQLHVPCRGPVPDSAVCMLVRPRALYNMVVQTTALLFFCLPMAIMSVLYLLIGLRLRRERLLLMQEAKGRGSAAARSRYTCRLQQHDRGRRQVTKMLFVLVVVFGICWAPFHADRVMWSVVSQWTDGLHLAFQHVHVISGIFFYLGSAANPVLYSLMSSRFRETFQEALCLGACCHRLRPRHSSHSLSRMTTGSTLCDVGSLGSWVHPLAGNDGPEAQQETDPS


Legend:
Test in all cases: cell-based or functional assay
mouse NMUR1-CTG = target: T1, mouse NMUR1-CTG
mouse NMUR2 = mouse NMUR2 (mouse, UniProt Q8BZ39 1-395)
Chain of mouse NMUR2 (Q8BZ39 whole entry): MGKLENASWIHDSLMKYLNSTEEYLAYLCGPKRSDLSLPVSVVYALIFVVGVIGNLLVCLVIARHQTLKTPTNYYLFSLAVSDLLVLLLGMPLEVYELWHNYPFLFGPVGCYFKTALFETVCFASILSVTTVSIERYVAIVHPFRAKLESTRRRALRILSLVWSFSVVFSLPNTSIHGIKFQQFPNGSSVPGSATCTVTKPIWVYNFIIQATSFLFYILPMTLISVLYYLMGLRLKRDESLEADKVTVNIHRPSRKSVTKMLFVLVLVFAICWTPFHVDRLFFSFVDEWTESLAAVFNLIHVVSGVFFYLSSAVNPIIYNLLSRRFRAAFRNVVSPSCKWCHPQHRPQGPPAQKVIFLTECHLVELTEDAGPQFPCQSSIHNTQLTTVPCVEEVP

mouse NMUR1-ATG = target: T2, mouse NMUR1-ATG
rat NMUR2 = rat NMUR2 (rat, UniProt Q9ESQ4 1-395)
Chain of rat NMUR2 (Q9ESQ4 whole entry): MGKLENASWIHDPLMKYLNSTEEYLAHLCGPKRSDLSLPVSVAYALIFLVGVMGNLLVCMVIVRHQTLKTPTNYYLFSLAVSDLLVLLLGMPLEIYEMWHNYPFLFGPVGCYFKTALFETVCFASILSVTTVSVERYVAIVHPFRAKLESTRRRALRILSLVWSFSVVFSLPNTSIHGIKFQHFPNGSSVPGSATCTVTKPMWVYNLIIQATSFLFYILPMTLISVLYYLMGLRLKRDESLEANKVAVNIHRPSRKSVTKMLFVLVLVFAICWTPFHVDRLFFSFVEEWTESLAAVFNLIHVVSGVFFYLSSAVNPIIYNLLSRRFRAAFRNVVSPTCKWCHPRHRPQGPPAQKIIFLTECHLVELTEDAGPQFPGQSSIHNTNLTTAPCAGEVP

rat NMUR1-TTG = target: T3, rat NMUR1-TTG
rat NMUR1-ATG = target: T4, rat NMUR1-ATG
human NMUR1 = target: T5, human NMUR1
human NMUR2 = human NMUR2 (human, UniProt Q9GZQ4 1-415)
Chain of human NMUR2 (Q9GZQ4 whole entry): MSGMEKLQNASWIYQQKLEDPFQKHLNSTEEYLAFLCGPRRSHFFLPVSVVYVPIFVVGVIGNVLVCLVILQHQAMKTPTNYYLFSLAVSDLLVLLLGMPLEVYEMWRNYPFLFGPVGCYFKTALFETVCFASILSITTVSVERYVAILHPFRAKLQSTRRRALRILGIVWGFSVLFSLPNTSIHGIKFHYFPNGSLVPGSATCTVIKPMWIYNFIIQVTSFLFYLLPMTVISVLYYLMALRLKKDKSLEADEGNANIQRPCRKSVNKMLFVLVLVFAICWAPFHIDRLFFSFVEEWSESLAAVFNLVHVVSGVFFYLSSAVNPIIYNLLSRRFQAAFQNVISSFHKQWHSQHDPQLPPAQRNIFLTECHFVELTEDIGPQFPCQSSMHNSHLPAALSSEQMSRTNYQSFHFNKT

Binder	% Activity (FLIPR) (mouse NMUR1-CTG) [%]	EC50 (FLIPR) (mouse NMUR1-CTG) [nM]	% Activity (FLIPR) (mouse NMUR2) [%]	EC50 (FLIPR) (mouse NMUR2) [nM]	% Activity (FLIPR) (mouse NMUR1-ATG) [%]	EC50 (FLIPR) (mouse NMUR1-ATG) [nM]	% Activity (FLIPR) (rat NMUR2) [%]	EC50 (FLIPR) (rat NMUR2) [nM]	% Activity (FLIPR) (rat NMUR1-TTG) [%]	EC50 (FLIPR) (rat NMUR1-TTG) [nM]	% Activity (FLIPR) (rat NMUR1-ATG) [%]	EC50 (FLIPR) (rat NMUR1-ATG) [nM]	% Activity (FLIPR) (human NMUR1) [%]	EC50 (FLIPR) (human NMUR1) [nM]	% Activity (FLIPR) (human NMUR2) [%]	EC50 (FLIPR) (human NMUR2) [nM]
Ac-C((PEG)2 40 kDa)FQSPFASQSRGYFLFRPRN-NH2 [NMU20]	65.4	480	100	14.8	100	12.7	100	16.9	93.8	24.4	100	7.2	100	16.4	100	13
Ac-C(Succinimide(1-Et,3-yl))C(Succinimide(1-Et,3-yl))FRVDEEFQSPFASQSRGYFLFRPRN-NH2 [NMU22]	100	43.5	100	6.9	100	6.2	98.8	17.1	96.4	39.1	100	14	95.6	10.2	105	6.5
Ac-C((PEG)2 40 kDa)ASQSRGYFLFRPRN-NH2 [NMU18]	57.7	693	100	50.2	100	15.2	96.7	63	90.7	105	95.9	28.6	97.1	68.1	101	65.7
Ac-C((PEG)2 40 kDa)[Ttds]FLFRPRN-NH2 [NMU16]	57.2	651	97.4	138	100	24.1	86.9	315	34.6	1000	75.4	418	74	1000	75	1000
Ac-C(Succinimide(1-Et,3-yl))ASQSRGYFLFRPRN-NH2 (SMILES CCN1C(=O)CC(SC[C@H](NC(C)=O)C(=O)N[C@@H](C)C(=O)N[C@@H](CO)C(=O)N[C@@H](CCC(N)=O)C(=O)N[C@@H](CO)C(=O)N[C@@H](CCCNC(=N)N)C(=O)NCC(=O)N[C@@H](Cc2ccc(O)cc2)C(=O)N[C@@H](Cc2ccccc2)C(=O)N[C@@H](CC(C)C)C(=O)N[C@@H](Cc2ccccc2)C(=O)N[C@@H](CCCNC(=N)N)C(=O)N2CCC[C@H]2C(=O)N[C@@H](CCCNC(=N)N)C(=O)N[C@@H](CC(N)=O)C(N)=O)C1=O) [NMU17]	117	2.9	100	0.5	100	1.2	100	1.2	105	4.9	100	0.9	100	5	99.8	1.5
Ac-C(PEG 20 kDa)FRVDEEFQSPFASQSRGYFLFRPRN-NH2 [NMU21]	90.8	56.3	100	1.6	100	9.1	99.2	7	77.5	220	99.9	19.5	93.2	14.5	97.9	24.2

Results, then the binder that gave them:

% Activity (FLIPR) (mouse NMUR1-CTG) [%]	EC50 (FLIPR) (mouse NMUR1-CTG) [nM]	% Activity (FLIPR) (mouse NMUR2) [%]	EC50 (FLIPR) (mouse NMUR2) [nM]	% Activity (FLIPR) (mouse NMUR1-ATG) [%]	EC50 (FLIPR) (mouse NMUR1-ATG) [nM]	% Activity (FLIPR) (rat NMUR2) [%]	EC50 (FLIPR) (rat NMUR2) [nM]	% Activity (FLIPR) (rat NMUR1-TTG) [%]	EC50 (FLIPR) (rat NMUR1-TTG) [nM]	% Activity (FLIPR) (rat NMUR1-ATG) [%]	EC50 (FLIPR) (rat NMUR1-ATG) [nM]	% Activity (FLIPR) (human NMUR1) [%]	EC50 (FLIPR) (human NMUR1) [nM]	% Activity (FLIPR) (human NMUR2) [%]	EC50 (FLIPR) (human NMUR2) [nM]	Binder
100	4	100	0.6	100	1.5	100	2.2	108	24.6	100	4.2	91.5	7.7	101	4.2	Ac-C(Succinimide(1-Et,3-yl))[Ttds]FLFRPRN-NH2 (SMILES CCN1C(=O)CC(SC[C@H](NC(C)=O)C(=O)NCCCOCCOCCOCCCNC(=O)CCC(=O)N[C@@H](Cc2ccccc2)C(=O)N[C@@H](CC(C)C)C(=O)N[C@@H](Cc2ccccc2)C(=O)N[C@@H](CCCNC(=N)N)C(=O)N2CCC[C@H]2C(=O)N[C@@H](CCCNC(=N)N)C(=O)N[C@@H](CC(N)=O)C(N)=O)C1=O) [NMU15]
111	22.5	100	5.6	100	7.9	100	8.7	100	12.8	100	6.8	95.9	38.9	105	11.5	Ac-C(Succinimide(1-Et,3-yl))FQSPFASQSRGYFLFRPRN-NH2 (SMILES CCN1C(=O)CC(SC[C@H](NC(C)=O)C(=O)N[C@@H](Cc2ccccc2)C(=O)N[C@@H](CCC(N)=O)C(=O)N[C@@H](CO)C(=O)N2CCC[C@H]2C(=O)N[C@@H](Cc2ccccc2)C(=O)N[C@@H](C)C(=O)N[C@@H](CO)C(=O)N[C@@H](CCC(N)=O)C(=O)N[C@@H](CO)C(=O)N[C@@H](CCCNC(=N)N)C(=O)NCC(=O)N[C@@H](Cc2ccc(O)cc2)C(=O)N[C@@H](Cc2ccccc2)C(=O)N[C@@H](CC(C)C)C(=O)N[C@@H](Cc2ccccc2)C(=O)N[C@@H](CCCNC(=N)N)C(=O)N2CCC[C@H]2C(=O)N[C@@H](CCCNC(=N)N)C(=O)N[C@@H](CC(N)=O)C(N)=O)C1=O) [NMU19]
50.9	770	100	21.3	100	14	90.2	47.4	39.8	1000	76.4	127	66.9	300	71.7	1000	Ac-C(PEG 20 kDa)C(PEG 20 kDa)FRVDEEFQSPFASQSRGYFLFRPRN-NH2 [NMU23]
